We go through one protein from PMC3781043, “A Transcript Profiling Approach Reveals an Abscisic Acid-Specific Glycosyltransferase (UGT73C14) Induced in Developing Fiber of Ligon lintless-2 Mutant of Cotton (Gossypium hirsutum L.)” (PLoS ONE, 2013).

Substrate in series [1]: CC1=CC(=O)CC(C)(C)[C@@]1(O)/C=C/C(C)=C/C(=O)O
In words: HPLC-MS of ABA glucoside formed, hyperbolic regression. The series is classed as biochemical, Gossypium hirsutum. The settings on record: 2.5 mM UDP-glucose as sugar donor, 50 mM MgCl2, 500 µM ATP, 50 mM Tris-HCl pH 8.0, 30°C. The source says: (§1) HPLC-MS of ABA glucoside formed, hyperbolic regression on UGT73C14

Substrate in series [2]: CC1=CC(=O)CC(C)(C)[C@@]1(O)/C=C/C(C)=C\C(=O)O
The series is described as above. The series is classed as biochemical, Gossypium hirsutum. As to conditions: 2.5 mM UDP-glucose as sugar donor, 50 mM MgCl2, 500 µM ATP, 50 mM Tris-HCl pH 8.0, 30°C.
Source text: as §1

B1: UGT73C14 (Gossypium hirsutum) (protein)
chain: AQGHFVLIPFMAQGHLIPMVDIGRLLAQRGVTVTIVTTPYNAGRVQKSVARAIESGLPIRLLQLQFPGKEVGLIDGVENIDMLHSMEDLIKFVSAANKMEEAMLKLFEKLTPRPNCIISDINLFYTRKIASKFQVPKISFHGFCCFCLLCLRNIQSSKINETVTSDSEYFTVPGLTDKVEFTRVQLPLDNDGSWKEIFEPMWEADRASYGVVINTFEELESAYVKEYRKEKKAWCIGPVSLSHKDELDMAERGNKTSIDGQKCLKWLDSQQPGSVIYACLGSIGTIKCPELIELGLGLEASNKPFIWVLRGNNPTASEVYKWIRRNEFEERTKGRGLVVVGWAPQVLILSHPAIGGFLTHCGWNSIIEGISAGVPLITFPFMGDQFCNEKLAVQILKIGVNLGANKPTMLGDEKSGFILNTEHVKNAIDKLMEQGNEGKEMRKRAKELGDEANKAVEVGGSSYMNITLLIQDILQQSQEMR
notes: about 99 kDa
Take B1: in series [1], the Km is given as 98.1 µM, the Vmax was determined as 82.9 µmol/min, the catalytic constant (kcat) is 2.7 s⁻¹ and the kcat/Km worked out at 27100 M⁻¹ s⁻¹. Further, in series [2], the Km was 61.7 µM, the Vmax is 221 µmol/min, the kcat was 7.2 s⁻¹ and the kcat/Km stood at 115000 M⁻¹ s⁻¹.

Usually Km stands for the substrate concentration at which the rate is half of its maximum. In general, Vmax refers to the rate approached at saturating substrate. Usually kcat stands for the number of substrate molecules converted per active site and unit of time at saturation. The kcat/Km is the second-order rate constant that governs catalysis at low substrate concentration.
